Molecular target: MYC2-GST (Solanum lycopersicum (MicroTom), UniProt A0A3Q7HRZ6 1-689)
Test: EMSA; strong binding; 20-40 ng protein; EMSA: 10 mM Tris-HCl pH 7.2, 50 mM KCl, 1 mM DTT, 2.5% glycerol, 0.05% NP-40, 50 ng/uL poly(dI-dC), room temperature, 20 min; pull-down: 10 mM HEPES pH 7.9, 100 mM KCl, 5 mM MgCl2, 10% glycerol, 1 mM DTT, 0.5% NP-40, 4 C overnight
Settings: protein: recombinant; tags: GST (pGEX-4T-1); chain copies: 2; label: 3'-biotin; blunt

Chain of MYC2-GST (A0A3Q7HRZ6 whole entry): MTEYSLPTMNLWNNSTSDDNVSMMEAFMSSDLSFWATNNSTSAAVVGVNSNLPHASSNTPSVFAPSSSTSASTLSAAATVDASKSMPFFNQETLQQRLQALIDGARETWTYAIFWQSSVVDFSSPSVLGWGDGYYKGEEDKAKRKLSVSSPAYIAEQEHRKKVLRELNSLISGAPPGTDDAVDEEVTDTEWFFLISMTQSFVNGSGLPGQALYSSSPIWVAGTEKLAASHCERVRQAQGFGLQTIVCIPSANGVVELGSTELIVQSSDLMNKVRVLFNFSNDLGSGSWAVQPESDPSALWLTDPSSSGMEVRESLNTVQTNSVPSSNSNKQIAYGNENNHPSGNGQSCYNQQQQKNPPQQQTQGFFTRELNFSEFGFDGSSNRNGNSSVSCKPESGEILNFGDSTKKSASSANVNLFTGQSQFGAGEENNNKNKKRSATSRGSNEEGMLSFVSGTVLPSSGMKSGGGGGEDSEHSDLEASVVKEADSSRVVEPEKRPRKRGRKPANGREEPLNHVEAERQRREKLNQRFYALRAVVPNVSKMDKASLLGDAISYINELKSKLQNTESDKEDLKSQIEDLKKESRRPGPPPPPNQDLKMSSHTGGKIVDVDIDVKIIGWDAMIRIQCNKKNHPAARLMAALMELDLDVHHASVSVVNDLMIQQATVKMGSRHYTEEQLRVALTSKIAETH

B1: GE1-1 probe (dsDNA)
DNA 1: ATGTATGTGTCTAATCAAACATCGGTGGCATAATTTTTTTTAGCATCAAA
DNA 2: TTTGATGCTAAAAAAAATTATGCCACCGATGTTTGATTAGACACATACAT
**Q.** Does B1 bind?
**A.** binds
